Target: V1.1
Experiment: SPR

B1: CFH (fH67) (other)
chain: TLKPCDYPDIKHGGLYHENMRRPYFPVAVGKYYSYYCDEHFETPSGSYWDHIHCTQDGWSPAVPCLRKCYFPYLENGYNQNYGRKFVQGKSIDVACHPGYALPKAQTTVTCMENGWSPTPRCI
  Kd: 3.6 nM
